Measurements: patent US7378388B2, “Method of utilizing neurotrophins to manipulate reproductive capacity” (University of Medicine and Dentistry of New Jersey, priority 2001, dated 2008)

Tests used:
[1] = system: cumulus cells; test: BDNF production and secretion by cultured cumulus cells (BDNF ELISA of culture medium); assay type: cell-based, human; settings: 10 μM forskolin, cumulus cells cultured 24 h, P=0.016
Text: Cumulus cells, which are a mass of epithelial cells surrounding the ovum in the ovarian follicle, were removed from oocytes in preparation for IVF and were dissociated in hyaluronidase (100 IU/ml, Sigma Chemical Company, St. Louis, Mo.) then washed twice with HBSS. The resulting preparation of cumulus cells was of ninety-nine percent (99%) pure.
For the purpose of examining the regulation of BDNF expression by cAMP, cumulus cells were combined between two subjects for each experiment. […] The culture media was collected after 24 hours of culture for assay of BDNF.
BDNF levels were determined using commercially available BDNF E max® immumoassay system (Promega, Madison, Wis.). The ELISA's were performed according to the manufacture's protocol. Follicular fluid, granulosa cell culture media, oocyte or embryo culture media was added to a 96-well immunoplate pre-coated with human BDNF specific monoclonal antibody. The plate was incubated at room temperature for 2 hours with shaking. Anti-BDNF monoclonal antibody was used as the capture Ab and Anti-BDNF pAb was used as reporter Ab. After washing, the amount of specifically bound pAb was detected using a species-specific anti-IgY antibody conjugated to horseradish peroxidase (HRP) as a tertiary reactant. […] Absorbency was measured at 450 nm using a microplate reader (Model Vmax kinetic microplate reader; Molecular Devices). […]

[2] = system: mouse oocytes; test: Effect of BDNF upon in vitro maturation of mouse oocytes; assay type: cell-based; settings: 100 ng/ml BDNF
Protocol: Six (6) 4-5 week old female C57BL/6 mice (Taconic Labs, German Town, N.Y.) were given a single intraperitoneal injection of 7.5 IV PMSG (Sigma, St. Louis, Mo.). One hundred sixty (160) immature oocytes were harvested 48 hours after gonadotropin injection. Cumulus cells were removed mechanically (27 gauge insulin needles) at room temperature. Oocytes were equally divided into control and experimental groups. Immature oocytes (n-80) were incubated (5% CO2 in air, 37° C.) in Human Tubal Fluid (HTF, Conception Technologies, San Diego, Calif.) with 100 ng/ml BDNF (Peprotech, Inc. Rocky Hill, N.J.) Control oocytes (n=80) were cultured in HTF under the same conditions without addition of BDNF. […] (See FIG. 3).

[3] = system: mouse oocytes; test: Effect of NT-4/5 and NT-3 on in vitro maturation of mouse oocytes; assay type: cell-based
Protocol: Eighteen 4-5 week old female C57BL/6 mice (Taconic Labs, German Town, N.Y.) were given a single intraperitoneal injection of 7.5 IU PMSG (Sigma, St. Louis, Mo.). Five hundred thirty-six (536) immature oocytes were harvested 48 hours after gonadotropin injection. Cumulus cells were removed mechanically (27 gauge insulin needles) at room temperature. Immature oocytes were equally divided into control (n=218) and experimental (n=318) groups and cultured in 5% CO2 in air, 37° C. in Human Tubal Fluid (HTF, Conception Technologies, San Diego, Calif.) for 24 and 48 hours with 1 ng/ml (n=59), 10 ng/ml (n=98) and 100 ng/mI (n=11) of 10 NT-4/5 (Peprotech, Inc. Rocky Hill, N.J.) or 10 ng/ml (n=60) and 100 ng/ml (n=60) of NT-3 (Peprotech, Inc. Rocky Hill, N.J.) to examine the percentage of germinal vesicle breakdown. The percentage of polar body extrusion was also examined. Control oocytes (n=218) were cultured in HTF under the same conditions without addition of NT-4/5 (n=158) or NT-3 (n=60).

[4] = 24 and 48 hours in culture, compared to controls

For `C=C[C@@]1(C)CC(=O)[C@]2(O)[C@@]3(C)[C@@H](O)CCC(C)(C)[C@@H]3[C@H](O)[C@H](OC(C)=O)[C@@]2(C)O1` [Forskolin], which “increase of BDNF production” value [1] is on record?
The value was 11 fold.

B1: brain-derived neurotrophic factor (protein, UniProt P23560 19-247, looked up)
Neurotrophic factor BDNF …: APMKEANIRGQGGLAYPGVRTHGTLESVNGPKAGSRGLTSLADTFEHVIEELLDEDQKVRPNEENNKDADLYTSRVMLSSQVPLEPPLLFLLEEYKNYLDAANMSMRVRRHSDPARRGELSVCDSISEWVTAADKKTAVDMSGGTVTVLEKVPVSKGQLKQYFYETKCNPMGYTKEGCRGIDKRHWNSQCRTTQSYVRALTMDSKKRIGWRFIRIDTSCVCTLTIKRGR
notes: neurotrophin, soluble polypeptide growth factor, Trk B ligand (Peprotech)
How did the “1st polar body extrusion” value ([2]; 20 hours, control 6.3%, p=0.017) turn out when B1 was run?
Its value is 18.8%.

What about the “1st polar body extrusion” value ([2]; 24 hours, control 6.3%, p=0.01) of the same molecule?
Its value is 20%.

And the “1st polar body extrusion” value ([2]; 48 hours, control 7.5%, p=0.013)?
Its value is 21.3%.

B2: neurotrophin-3 (protein, UniProt P20783 139-257, looked up)
Neurotrophin-3: YAEHKSHRGEYSVCDSESLWVTDKSSAIDIRGHQVTVLGEIKTGNSPVKQYFYETRCKEARPVKNGCRGIDDKHWNSQCKTSQTYVRALTSENNKLVGWRWIRIDTSCVCALSRKIGRT
notes: neurotrophin, Trk C ligand (Peprotech)
Which germinal vesicle breakdown [3, 4] does the source give for B2 here?
Its germinal vesicle breakdown is “did not alter”.

What about the “mouse oocyte polar body extrusion” value [3, 4] of the same molecule?
The value was “did not alter”.

B3: neurotrophin-4/5 (protein, UniProt P34130 81-210, looked up)
Neurotrophin-4: GVSETAPASRRGELAVCDAVSGWVTDRRTAVDLRGREVEVLGEVPAAGGSPLRQYFFETRCKADNAEEGGPGAGGGGCRGVDRRHWVSECKAKQSYVRALTADAQGRVGWRWIRIDTACVCTLLSRTGRA
notes: neurotrophin, Trk B ligand (Peprotech)
For B3, which “mouse oocyte polar body extrusion” value ([3]; 1.0 ng/ml, 48 hours, p<0.05) is on record?
Its value is “significantly influenced”.

And the “mouse oocyte polar body extrusion” value ([3]; 10 ng/ml, 24 hours, <0.01)?
Its value is “significantly influenced”.

What about the “mouse oocyte polar body extrusion” value ([3]; 10 ng/ml, 48 hours, p<0.01) of the same molecule?
The value was “significantly influenced”.

And the germinal vesicle breakdown [3, 4]?
The germinal vesicle breakdown was “did not influence”.

What about the “mouse oocyte polar body extrusion” value [3, 4] of the same molecule?
The value was “significantly promoted”.
